Experimental data reported in article PMC4319893, “Targeting Protein-Protein Interactions with Trimeric Ligands: High Affinity Inhibitors of the MAGUK Protein Family” (PLoS ONE, 2015).

Biological target: PSD-95 PDZ3 (human)
Experiment: fluorescence polarisation; truncation study of CRIPT C-terminal peptides on PSD-95 PDZ3 and PSD-95 FL (S1 Table); probe not told

affinity: > 50 µM
Binder: IETAV
